Measurements taken from US20140235820A1, “METHODS AND COMPOSITIONS FOR MODULATING THE Wnt PATHWAY” (Genentech, Inc., priority 2010, published 2014).
Changes are numbered by the printed parent chain.

T1: LRP6 E1E2 (Homo sapiens, UniProt O75581)
T1 construct: construct E1E2-amino acids A20-E631 of LPR6; made in house; host or cells: Tni insect cells (baculovirus, secreted)
T1 sequence (O75581 20-631): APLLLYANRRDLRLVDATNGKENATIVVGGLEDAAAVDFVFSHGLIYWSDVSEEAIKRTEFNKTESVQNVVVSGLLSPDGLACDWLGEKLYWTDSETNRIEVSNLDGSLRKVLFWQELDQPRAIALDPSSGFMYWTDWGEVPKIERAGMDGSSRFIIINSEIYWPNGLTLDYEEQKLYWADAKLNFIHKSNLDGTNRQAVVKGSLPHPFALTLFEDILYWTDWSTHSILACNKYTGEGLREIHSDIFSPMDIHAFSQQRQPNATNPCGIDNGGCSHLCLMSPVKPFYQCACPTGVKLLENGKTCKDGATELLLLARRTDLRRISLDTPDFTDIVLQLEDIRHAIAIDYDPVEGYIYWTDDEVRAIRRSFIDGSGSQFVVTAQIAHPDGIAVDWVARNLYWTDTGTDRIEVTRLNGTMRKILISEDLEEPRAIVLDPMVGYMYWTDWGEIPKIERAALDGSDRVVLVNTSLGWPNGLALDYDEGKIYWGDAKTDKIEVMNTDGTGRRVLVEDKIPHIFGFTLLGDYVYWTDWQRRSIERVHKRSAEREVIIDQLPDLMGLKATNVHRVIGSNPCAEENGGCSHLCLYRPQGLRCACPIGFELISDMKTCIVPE

T2: human LRP6 construct E3E4 (amino acids E631-Q1253) (human, UniProt O75581 631-1253, biotinylated for biolayer interferometry)
T2 construct: range 631-1253; also called LRP6 E3E4
T2 sequence (looked up): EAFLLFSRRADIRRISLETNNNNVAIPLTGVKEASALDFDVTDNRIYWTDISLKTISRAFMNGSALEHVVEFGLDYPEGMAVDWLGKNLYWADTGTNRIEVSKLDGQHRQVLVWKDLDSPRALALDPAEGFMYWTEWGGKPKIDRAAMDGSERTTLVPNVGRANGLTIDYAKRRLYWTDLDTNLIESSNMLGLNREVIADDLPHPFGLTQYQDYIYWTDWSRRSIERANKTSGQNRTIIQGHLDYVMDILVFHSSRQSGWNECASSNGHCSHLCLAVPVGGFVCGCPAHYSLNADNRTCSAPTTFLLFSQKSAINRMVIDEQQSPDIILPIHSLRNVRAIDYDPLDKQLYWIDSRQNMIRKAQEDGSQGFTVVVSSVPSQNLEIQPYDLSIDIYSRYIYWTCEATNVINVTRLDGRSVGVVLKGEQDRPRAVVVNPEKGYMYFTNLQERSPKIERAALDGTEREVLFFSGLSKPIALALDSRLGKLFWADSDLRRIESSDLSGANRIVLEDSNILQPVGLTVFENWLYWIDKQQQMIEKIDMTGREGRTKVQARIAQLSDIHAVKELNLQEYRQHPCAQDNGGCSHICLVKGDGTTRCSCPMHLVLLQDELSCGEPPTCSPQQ

T3: human LRP6 construct E4 (T933-Q1253) (human, UniProt O75581 933-1253, biotinylated for biolayer interferometry)
T3 construct: range 933-1253; also called LRP6 E4
T3 sequence (looked up): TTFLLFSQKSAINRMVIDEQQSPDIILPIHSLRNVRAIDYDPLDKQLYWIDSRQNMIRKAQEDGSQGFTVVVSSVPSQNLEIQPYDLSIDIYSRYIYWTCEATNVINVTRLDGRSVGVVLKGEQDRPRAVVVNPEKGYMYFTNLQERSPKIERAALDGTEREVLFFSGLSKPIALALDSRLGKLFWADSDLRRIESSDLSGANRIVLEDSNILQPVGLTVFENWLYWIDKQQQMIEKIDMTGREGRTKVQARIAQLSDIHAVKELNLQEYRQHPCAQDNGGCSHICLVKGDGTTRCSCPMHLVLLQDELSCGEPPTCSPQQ

T4: LRP6 E1E2 Arg141Met (human, UniProt O75581 20-631)
T4 construct: range 20-631; also called LRP6 E1E2 R141M
T4 sequence (looked up): T1 sequence (O75581 20-631) with R122M

T5: LRP6 E1E2 Asn185Ser (human, UniProt O75581 20-631)
T5 construct: range 20-631; also called LRP6 E1E2 N185S (analogue of LRP5 BMD mutation Asn198Ser)
T5 sequence (looked up): T1 sequence (O75581 20-631) with N166S

B1: Sclerostin (wild type) (ligand, UniProt Q9BQB4 24-213, looked up)
chain: QGWQAFKNDATEIIPELGEYPEPPPELENNKTMNRAENGGRPPHHPFETKDVSEYSCRELHFTRYVTDGPCRSAKPVTELVCSGQCGPARLLPNAIGRGKWWRPSGPDFRCIPDRYRAQRVQLLCPGGEAPRARKVRLVASCKCKRLTRFHNQSELKDFGTEAARPQKGRKPRPRARSAKANQAELENAY
notes: also called SOST; Sost

Columns and labels:
LRP6 E1E2 = target: T1, LRP6 E1E2; assay: Competition phage ELISA, peptide affinity for LRP6 E1E2; type: binding; conditions: relative to Dkk1 peptide
Method: Peptide affinities were also determined by competition with phage displaying a binding peptide (competition phage ELISA). Serial dilutions of test peptide were mixed with an appropriate (non-saturating) concentration of phage before exposing the mixture to target and allowing it to reach equilibrium. After washing to remove unbound material, bound phage were detected by incubation with anti-M13 antibody-horseradish peroxidase (HRP) conjugate and exposure to a suitable colorometric HRP substrate.
Seven-residue peptides from Dkk1 and Sost were synthesized by standard Fmoc procedures. FIG. 7B. These peptides include the “NXI” motif described above. Affinities of the peptides for LRP6 E1E2 were determined by competition phage ELISA (41). […] To understand the detailed interactions of the peptides with LRP6, we determined high-resolution co-crystal structures of the peptides bound to the LRP6 E1 β-propeller. Structures were determined by molecular replacement and refined to 1.9 and 1.5 Å resolution for Dkk1 and Sost peptides, respectively (FIG. 8). Remarkably, the peptides show very similar bound-state conformations compared to the antibody loop, in each case placing the key asparagine side chain in position for the “handshake” interaction described above. Peptide isoleucine residues occupy the hydrophobic pocket where the valine side chain of the antibody loop interacts. […]

[1] = target: T2, human LRP6 construct E3E4 (amino acids …); assay: BLI, biotinylated LRP6 on streptavidin tips
Method: (§1) Binding kinetics were measured by biolayer interferometry using an Octet Red instrument (ForteBio) as previously described (11). Streptavidin (SA) biosensors were loaded with biotinylated hLRP6 in 50 mMTris, pH 8, 300 mM NaCl, 5% (v/v) glycerol, and 0.05% (w/v) Triton X-100. The loaded biosensors were washed in the same buffer before carrying out association and dissociation measurements for the indicated times. The Kd of each interaction was determined using steady state-analysis through the Octet Red software v6.3. Each reported value represents an average of three or more experiments at different concentrations, with a fitted experimental curve for which the square of the correlation coefficient (R²) is above 0.96.
(§2) Purified receptors contained individual β-propeller-EGF-like units (E1, E2, or E4), two β-propellers (E1E2 or E3E4), or four β-propellers (E1E4))—as follows: […]

[2] = target: T3, human LRP6 construct E4 (T933-Q1253); assay: BLI, biotinylated LRP6 on streptavidin tips
Method: as §1, §2

LRP6 E1E2 Arg141Met = target: T4, LRP6 E1E2 Arg141Met; assay: BLI steady-state affinity
Method: as §1

LRP6 E1E2 Asn185Ser = target: T5, LRP6 E1E2 Asn185Ser; assay: BLI steady-state affinity
Method: as §1

| Molecule | binds more weakly than the Dkk1 peptide (LRP6 E1E2) | binding result [1] | binding result [2] | fold loss in affinity against wild-type LRP6 E1E2 (LRP6 E1E2 Arg141Met) | fold loss in affinity against wild-type LRP6 E1E2 (LRP6 E1E2 Asn185Ser) |
| --- | --- | --- | --- | --- | --- |
| Ac-LPNAIGR-NH2 (N-terminus and C-terminus assumed) [sclerostin peptide] | about 10 fold |  |  |  |  |
| B1 |  | no binding | no binding | 31 fold | 59 fold |
